Test results: US11976099B2, “Compositions and methods for treatment of bone associated diseases” (THE NATIONAL INSTITUTE FOR BIOTECHNOLOGY IN THE NEGEV LTD., priority 2016, dated 2024)

B1: 5.6: bispecific M-CSFRGD variant from sort five; M-CSFM loop replaced by XXXRGDXXX motif; binds c-FMS and αvβ3 integrin (protein)
chain: EEVSEYCSHMIGSGHLQSLQRLIDTYPRGDMCSITFEFVDQEQLKDPVCYLKKAFLLVQDIMEDTMRFRDNTPNAIAIVQLQELSLRLKSCFTKDYEEHDKACVRTFYETPLQLLEKVKNVFNETKNLLDKDWNIFSKNCNNSFAECSSQGHERQSEGS
modifications: left off: small tags and cut ends
B2: M-CSFM: 158 amino acid M-CSF with cysteine at position 31 replaced by serine (SEQ ID NO: 2) (protein)
chain: EEVSEYCSHMIGSGHLQSLQRLIDSQMETSSQITFEFVDQEQLKDPVCYLKKAFLLVQDIMEDTMRFRDNTPNAIAIVQLQELSLRLKSCFTKDYEEHDKACVRTFYETPLQLLEKVKNVFNETKNLLDKDWNIFSKNCNNSFAECSSQGHERQSEGS

How the values were obtained:
[1] = test system: c-FMS and αvβ3 integrin; experiment: YSD binding of M-CSFRGD variants to c-FMS and αvβ3 integrin, alone and simultaneously; set-up: species or system human
Procedure: (§1) For expressing the M-CSFM gene and the two M-CSFRGD libraries on the yeast surface, the SDCAA medium was replaced by SGCAA medium (2% galactose, 0.67% yeast nitrogen base, 0.5% bacto casamino acids, 1.47% sodium citrate, 0.429% citric acid monohydrate) and the yeasts were incubated overnight at 30° C. until the culture reached OD600=10.0 (10^8 cells per ml). A number of cells equal to ten times the library size was added to 1 ml of PBS containing 1% bovine serum albumin (PBSA); the suspension was centrifuged, and the supernatant was removed. For binding analysis of M-CSFM and the M-CSFRGD libraries to c-FMS, yeast cells were incubated with mouse anti c-myc antibody, 9E10 (Abcam, Cambridge, MA, USA) in a 1:50 ratio and different concentrations of soluble Fc conjugated human c-FMS (R&D systems, USA) for 1 h at room temperature. […]
To identify the high αvβ3 integrin and c-FMS binders, 25 different clones from sort 4 and 25 different clones from sort 5 were tested for binding to 20 nM of αvβ3 integrin, as described in the flow cytometry sorting section. […] To determine the binding specificity to other RGD binding integrins, namely α4β7, […], α5β1 and αvβ5 (BioLegend, USA), the three chosen M-CSFRGD variants (4.22, 4.24 and 5.6) were analyzed for binding to 250 nM of each integrin. […]

[2] = test system: mature osteoclasts; experiment: Actin ring formation in mature osteoclasts; assay type: cell-based, mouse; conditions: inhibitors 5 μM added to mature osteoclasts for 24 h; F-actin staining
Procedure: FIG. 23 are example pictures showing Actin ring formation in mature osteoclasts incubated with M-CSFRGD variants. Murine BMMs were allowed to differentiate into osteoclasts in the presence of M-CSF and RANKL for 72 h. Then, the cells were incubated for additional 24 h without (positive control) or with inhibitors (5 μM) followed by fixation and staining for F-actin and nuclei. Cells were able to form a solid actin ring (white arrowheads), scattered actin ring (white arrows) or amorphous actin distribution (barbed arrowheads). Pictures are representatives of 35 images acquired from five different wells per sample.
For a mature osteoclast to resorb bone properly, it must form unique structure termed “sealing zone”; this structure consists of an actin ring made from a dense actin mesh connected by adhesion complexes called podosomes. The formation of the actin ring involves several stages: at the beginning, podosomes are formed throughout the cell in a scattered manner, then groups of podosomes form small actin structures named belts and upon osteoclast maturation, the belts are moving to the cell periphery, cluster, and form the actin ring. Podosomes contain high levels of αvβ3 integrin which is essential for the formation of a proper actin ring with condensed podosome network. […]

[3] = molecular target: T1, αvβ3 integrin (Homo sapiens, UniProt P05106+P06756, DEL719-788); experiment: YSD binding of M-CSFM to αvβ3 integrin; conditions: even at high concentrations of 200 nM
T1 construct: purchased R&D Systems
Procedure: as §1, with “temperature. After an additional washing step, cells were labeled with secondary PE anti mouse (Sigma-Aldrich, St. Louis, MO, USA) and goat anti human Fc FITC antibodies (Sigma-Aldrich) for 30 min at 4° C. in the dark. For binding analysis of M-CSFRGD libraries to integrin, the experiment was performed with integrin binding buffer (IBB; 20 mM Tris, pH7.5, 2 mM CaCl2, 100 mM NaCl, 1 mM MgCl2, and 1 mM MnCl2)+1% BSA. The yeast cells were incubated with chicken anti c-myc and different concentrations of soluble human αvβ3 integrin (R&D Systems, Minneapolis, MN, USA) for 1 h.” for “temperature.”

[4] = molecular target: c-kit receptor (Homo sapiens, UniProt P10721); experiment: YSD binding specificity test against c-kit receptor; conditions: even at high concentrations of 200 nM; data not shown
Procedure: Next, a binding specificity of the M-CSFM to c-FMS was evaluated. For this purpose, the ability of M-CSFM to bind a c-kit receptor, which is a c-FMS structural homolog, was utilized.

T1 sequence (P06756 31-992 limits assumed, stated change not applied): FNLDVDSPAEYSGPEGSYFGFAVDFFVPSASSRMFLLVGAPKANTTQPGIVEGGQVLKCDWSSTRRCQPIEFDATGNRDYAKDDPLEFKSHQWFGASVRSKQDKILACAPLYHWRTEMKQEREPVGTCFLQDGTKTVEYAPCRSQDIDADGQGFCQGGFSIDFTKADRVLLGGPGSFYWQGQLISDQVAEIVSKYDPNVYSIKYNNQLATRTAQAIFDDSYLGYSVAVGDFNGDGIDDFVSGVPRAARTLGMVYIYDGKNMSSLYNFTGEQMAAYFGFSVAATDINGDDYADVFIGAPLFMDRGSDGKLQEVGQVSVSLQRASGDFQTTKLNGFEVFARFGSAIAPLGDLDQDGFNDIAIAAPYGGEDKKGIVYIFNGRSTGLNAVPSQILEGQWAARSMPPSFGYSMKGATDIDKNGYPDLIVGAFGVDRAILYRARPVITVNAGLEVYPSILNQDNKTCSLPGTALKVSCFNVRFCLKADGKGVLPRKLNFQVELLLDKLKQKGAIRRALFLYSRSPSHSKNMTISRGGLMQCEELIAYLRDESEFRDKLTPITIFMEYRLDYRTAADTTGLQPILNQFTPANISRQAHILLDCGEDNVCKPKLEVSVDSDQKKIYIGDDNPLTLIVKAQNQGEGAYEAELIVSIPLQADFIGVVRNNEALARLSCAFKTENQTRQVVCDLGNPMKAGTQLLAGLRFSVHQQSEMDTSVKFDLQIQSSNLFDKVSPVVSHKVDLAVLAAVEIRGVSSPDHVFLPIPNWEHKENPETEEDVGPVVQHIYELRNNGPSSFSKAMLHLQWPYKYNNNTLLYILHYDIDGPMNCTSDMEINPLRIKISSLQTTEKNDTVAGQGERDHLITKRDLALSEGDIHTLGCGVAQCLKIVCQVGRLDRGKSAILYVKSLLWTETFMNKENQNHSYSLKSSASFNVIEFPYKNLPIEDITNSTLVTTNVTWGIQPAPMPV
T1 sequence (P05106 27-718 limits assumed, stated change not applied): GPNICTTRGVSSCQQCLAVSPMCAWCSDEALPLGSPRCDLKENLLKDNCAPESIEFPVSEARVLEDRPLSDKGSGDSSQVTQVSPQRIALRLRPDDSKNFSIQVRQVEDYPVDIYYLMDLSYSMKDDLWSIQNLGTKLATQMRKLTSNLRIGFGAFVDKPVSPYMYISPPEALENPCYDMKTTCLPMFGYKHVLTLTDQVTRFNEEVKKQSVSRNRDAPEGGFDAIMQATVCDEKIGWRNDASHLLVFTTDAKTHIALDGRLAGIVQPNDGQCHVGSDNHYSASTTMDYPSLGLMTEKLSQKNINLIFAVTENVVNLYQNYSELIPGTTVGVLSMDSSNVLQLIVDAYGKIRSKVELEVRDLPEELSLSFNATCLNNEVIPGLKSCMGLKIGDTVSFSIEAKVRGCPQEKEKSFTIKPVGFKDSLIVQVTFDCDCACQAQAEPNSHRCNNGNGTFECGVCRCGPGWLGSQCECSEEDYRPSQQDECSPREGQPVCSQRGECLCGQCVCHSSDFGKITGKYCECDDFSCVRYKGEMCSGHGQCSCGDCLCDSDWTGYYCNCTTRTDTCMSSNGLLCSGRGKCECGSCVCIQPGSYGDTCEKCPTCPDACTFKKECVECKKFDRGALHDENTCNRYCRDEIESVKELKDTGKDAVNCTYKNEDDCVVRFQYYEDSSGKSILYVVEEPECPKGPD
Chain of c-kit receptor (P10721 26-976): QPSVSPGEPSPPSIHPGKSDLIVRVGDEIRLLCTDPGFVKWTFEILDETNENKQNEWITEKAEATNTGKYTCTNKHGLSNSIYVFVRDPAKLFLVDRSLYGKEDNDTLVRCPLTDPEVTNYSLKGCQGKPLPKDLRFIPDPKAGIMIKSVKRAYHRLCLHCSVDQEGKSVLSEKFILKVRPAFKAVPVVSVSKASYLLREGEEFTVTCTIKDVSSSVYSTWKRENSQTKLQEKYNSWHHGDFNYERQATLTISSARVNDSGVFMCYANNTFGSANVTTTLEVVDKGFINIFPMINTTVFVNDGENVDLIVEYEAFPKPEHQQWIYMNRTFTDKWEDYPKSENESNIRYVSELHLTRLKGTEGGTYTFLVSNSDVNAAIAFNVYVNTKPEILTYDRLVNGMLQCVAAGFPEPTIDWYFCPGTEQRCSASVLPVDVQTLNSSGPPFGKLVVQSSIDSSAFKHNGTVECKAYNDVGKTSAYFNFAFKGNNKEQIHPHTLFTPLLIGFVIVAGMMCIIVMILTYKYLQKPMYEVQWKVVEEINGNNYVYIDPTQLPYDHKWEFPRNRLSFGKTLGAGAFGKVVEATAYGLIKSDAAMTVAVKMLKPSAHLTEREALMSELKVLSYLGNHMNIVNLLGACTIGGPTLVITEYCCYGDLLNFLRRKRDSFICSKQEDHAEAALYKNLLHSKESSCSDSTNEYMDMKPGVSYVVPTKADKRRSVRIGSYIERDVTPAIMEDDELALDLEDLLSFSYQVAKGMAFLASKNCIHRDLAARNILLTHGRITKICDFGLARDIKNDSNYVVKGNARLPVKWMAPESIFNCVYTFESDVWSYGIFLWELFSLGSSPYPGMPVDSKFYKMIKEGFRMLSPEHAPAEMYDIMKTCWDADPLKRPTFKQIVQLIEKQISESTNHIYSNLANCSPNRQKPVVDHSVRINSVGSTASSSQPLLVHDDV

Row | Molecule | relative affinity for c-FMS and αvβ3 integrin [1] | simultaneous binding of c-FMS and αvβ3 integrin ([1]; data not shown) | actin ring formation [2] | binding to αvβ3 integrin [3] | binding to c-kit receptor [4]
1 | B1 | higher affinity for c-FMS than for αvβ3 integrin | could simultaneously bind c-FMS and αvβ3 integrin | showed the same phenotype as cRGD and M-CSFαvβ3 |  | 
2 | B2 |  |  |  | did not bind | did not bind
